The text below walks through data of patent US20070059284A1.

In the test the target is Human IL-21 Receptor (human) (UniProt Q9HBE5). Put plainly: cell-based or functional assay.

For the substance “human IL-21-saporin immunotoxin conjugate (from UniProt P20656 25-277)”, the 3H-thymidine incorporation of conjugate-treated MOLT-13 cells relative to IL-21 treated MOLT-13 cells amounted to 70%, the density of conjugate-treated DEL cells relative to untreated cells (3H-thymidine) was determined as 25%, the density of conjugate-treated HuT-78 cells relative to untreated cells (3H-thymidine) stood at 33% and the density of conjugate-treated HuT-102 cells relative to untreated cells (3H-thymidine) came to 20%. Further, the density of conjugate-treated YT cells relative to untreated cells (3H-thymidine) came to 33%; the growth inhibition of IM-9 cells at the maximal conjugate concentration (250 ng/ml), Alamar Blue proliferation assay was 79%; the growth inhibition of RAMOS cells at the maximal conjugate concentration (250 ng/ml), Alamar Blue proliferation assay is 65%.
